Measured values reported in the supplement of paper PMC10567573.

B1: CAMK2A (parent)
chain: ILLVGYPPFWDEDQHRLYKQIKAG

Variants of: B1
Assay: protein stability index of a GFP-peptide fusion (GPS, HEK-293T) (PSI 1-6); higher = more stable
Conditions: c terminus: a fixed tail appended
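Note: lentivirally expressed fusions sorted by FACS into six bins by GFP to DsRed ratio, PSI derived from sequencing read proportions per bin multiplied by bin number.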

Protein stability index, by site and new letter:
E12: D 2.27; A 1.49; L 1.95; P 2.84; F 2.03; M 3.3; R 2.23; Y 2.57; N 1.42; I 2.76; H 2.29; K 1.92; T 1.96; Q 3.3; W 2.32; V 2.56
P8: D 1.67; M 1.89; L 1.81; R 3.38; A 1.83; N 4.23; F 2.95; C 4.72; T 1.87; E 2.1; K 2.06; V 2.96; Y 1.98
Y6: N 1.93; P 2.19; Q 2.17; E 2.1; F 2.73; C 1.62; K 1.39; L 1.61; G 2.23; A 1.67; M 2.36; S 1.43; T 1.77; D 2.12; H 1.28; V 1.45; W 3.13; I 5.07
F9: L 2.27; P 2.13; W 1.28; S 2.19; G 1.67; C 2.58; E 1.44; A 1.65; V 2.37; N 2.86; H 1.84; Y 1.5; K 2.52; D 1.77; I 1.62; Q 2.38; R 2.83; M 1.99; T 1.84
D13: A 3.24; C 2.36; I 2.18; P 2.24; T 2.2; E 1.76; L 3.98; S 2.06; H 2.2; F 3.02; K 3.5; R 2.19; M 3.08; Q 2.42
L3: T 1.97; W 2.4; V 2.35; Y 1.74
D11: C 2.48; H 2.29; L 2.39; Y 1.61; P 2.35; M 2.52; E 3.38; F 3.09; V 2.18; K 2.46; N 2.59; S 2.62; W 2.44; I 3.45; G 1.55; A 2.34; T 1.85; R 1.21
G5: H 2.32; F 3.4; M 2.53; R 2.65; D 1.55; E 3.74; T 2.74; N 1.99; W 1.53; K 2.35; P 3.17; Y 1.49; V 3.83; Q 2.37; A 2.27
P7: A 1.47; E 1.43; M 2.9; H 3.75; D 1.39; V 2.63; Q 1.28; I 2.46; G 2.31; W 2.73; T 2.56; Y 4.41; F 2.85; L 2.89
W10: N 1.71; M 1.18; E 1.78; K 1.6; A 1.73; L 2.54; P 3.75; T 2.34; V 2.05; R 1.52; I 2.71; Q 2.27; G 1.86; C 1.64; Y 2.05; S 2.45; H 1.56; D 1.69; F 2.27
V4: C 1.64; A 1.07; N 1.92; H 2.23; K 2.23; S 1.65; L 2.66; P 1.73; D 2.4; Y 2.13; E 1.53; R 1.47; Q 2.33; G 2.24; T 2.31; F 2.76; I 3.1
